Measured values taken from the DeepSol protein solubility set.

Assay: soluble on expression in E. coli; label from the status in PepcDB or PDB records

| Sequence | soluble on expression in E. coli |
| --- | --- |
| MKLMDVRVSGLNVWITDKHILKGISFKAQPGTVTAIMGPSGSGKSTLIRVINRLIDLIPGARVEGEVWINNMNVMKEDPYNIRRYTGMVFQEPNPFPHMTIYENVAIGPKLHGLAKNKKELDEIVEWALKMAHLWDEVKDRLSDYPHQLSGGQRQRLSLARALALKPRVLLLDEPTANIDPVSTVKIEQSIVEYAKEEMATVIIVTHTPQQAARISDQILFLYEGRVIEYGPTKELVLRPRHELTKKFLGGEV | soluble |
| MAFNIESLLEKKSNPVEEGNDFEEENDSEKNGEEDEEEEEKNVIDGWTNMATSQLAMFAIANDLRTPTLVELQMLLGVSARKHDYKRSRKSVCERKPRQAYSARQLDRLETEFQTDKYLSVNKRIQLSQTLNLTETQIKTWFQNRRTKWKKQLTSSIRQMVKDAPTSTSVGVPFQSLLTPPTPPTTLACHVNSLFACEQ | not soluble |
| MGSDKIHHHHHHMTTAQQTENKGQQTRTVAELVEDIKALTTEIQELYCLDQIPWVLGVSWGKDSSTVLQLVWNAIAALPPEKRTKTVYVITTDTQVENPVVSAWVRKSLQNLKIAAKEQGMPIDPHLLQPVIQDTFWVNLIGKGYPAPRNQFRWCTPRLKINPANQFIREIVRANGETILVLGTRKAESSKRAATMKKHQVDRVRDRLSPNASLPNSLIYTPIEDWSNNDVWIYLNQWNNPWGQSNKELFTMYRGATADNECPLVVDTSTPSCGDSRFGCWVCTLVSKDKSMEAMIQNDEEKEWMQPLLDIRNELDIKDDRDKRDFRRIWGEVQLFERNKDGKISVDPIPGPYTKYWREYWLKRLLEAQIKTRRTAPENMRDITLITLEEMSEIRRIWLEDKHEFDDSLPRIYQEVTGEEFQDPRPGADYSLLGRDEWIVLEEICEGDAMHLELMAKLLDTERQYRKKTRRVGIYETLEKCFNTSSRSPEDAIKNARLKRELSEAVSQGDVAKVKQMTLGDVAAINEVDEGQSESDEEVTWASMKFKKENSEE | not soluble |
| SRYAIYWTPEDGPLARFGRSWLGWDPVTAEPAAHPAIEDLPRDVALITQAPRKYGLHATLKPPFRLADGADVTDLHAAVVALCPYLAPVTLPGLKLDRIGGFLALVPAGNEEPLADLAAEVMRALDGFRAPLTEAELARRRPERLTPRQRGHLADWGYPYVLDDYRFHVTLTGELPEAELAEVVTVLEPLLEPILAEPVRIASLCLFAEASDGRFRMLERLPIT | not soluble |
| MKVIAVNGGPRKQWNTATLLHKALEGAQSAGAETDLFHLYDLNYKGCISCFGCKRKNSSRIGHCVLKDELTPLLEEVLKCDALLLGSPIYFGNVTGAMRSFLERLFFSLLSYNEGQRTVFPRKVASGFIYTMNVPEDFLPQLEHHHHHH | soluble |
| MIPGEYRLREEPIVCNRQKSATKLTVVNRGDRPVQVGSHFHFFEVNSFLEFDRQAAYGKHLNIPAGTAVRFEPGDAKQVELVPFSGERRVYGLNNMVNGPLDGNGKGGVRE | soluble |
| AEESSKAVKYYTLEEIQKHNNSKSTWLILHYKVYDLTKFLEEHPGGEEVLREQAGGDATENFEDVGHSTDARELSKTFIIGELHPDDRSKITKPSESIITTIDS | soluble |
| MSLNTLKEVNKIIQYLNNIHNEPIGNQARVLCGKDAAKHLFLVASGADSLSIGEYEILSQIRSTIDMFKKLGFSGKYLQIFFERAIKVGRKVREETSISKGKVGIYSLAIDEAKKRFNDFYDRRILVIGAGEMAQKITSMLHNEGAKDVTIMNRTIEKAKQLALKFGYNYEKLDLDKLGNFDVAFISIYHENLRLENKWNTLIVDITVPPLFTGNNVITLEELERISNLNFKAREEELAKINKLVEDGINELLYDYKKEIYTEFMSKIMKRIETIRENEILRAYKELEKEGHHHHHH | not soluble |
| MRIEVRLFALYREQAGTDRLALELPEGARVREAQKALEERFPRLRLEGGMAAVNQALAGAETPLKEGDEVAFLPPVSGGQDSYGLTQEPLDLEALVAWATAPEYGAVVSFLGTTRSPNRGEEVAFLEYEAYPEMAEKVMAEILAEMRARWPLGRIALWHRLGRVDPGEASIAIVVSARHRKEAFAACQYAIDRVKQILPVWKKEHRKDGSFWVEGFAPEDKRL | soluble |
| MGALESLRGNADLAYILSMEPCGHCLIINNVNFCRESGLRTRTGSNIDCEKLRRRFSSLHFMVEVKGDLTAKKMVLALLELARQDHGALDCCVVVILSHGCQASHLQFPGAVYGTDGCPVSVEKIVNIFNGTSCPSLGGKPKLFFIQACGGEQKDHGFEVASTSPEDESPGSNPEPDATPFQEGLRTFDQLDAISSLPTPSDIFVSYSTFPGFVSWRDPKSGSWYVETLDDIFEQWAHSEDLQSLLLRVANAVSVKGIYKQMPGCFNFLRKKLFFKTSHHHHHH | soluble |
| MDREQVVALQHQRFAAKKYDPNRRISQKDWEALVEVGRLAPSSIGLEPWKMLLLKNERMKEDLKPMAWGALFGLEGASHFVIYLARKGVTYDSDYVKKVMHEVKKRDYDTNSRFAQIIKNFQENDMKLNSERSLFDWASKQTYIQMANMMMAAAMLGIDSCPIEGYDQEKVEAYLEEKGYLNTAEFGVSVMACFGYRNQEITPKTRWKTEVIYEVIE | soluble |
| MGSDKIHHHHHHMTVRQDIHSSGIPVLCLSCAARLRGVCAALDPNHLVGLAKTSSRHKLEPGVELIADAEAVDSYSNLLSGVVKLTKCLSDGRQQIVGLRFAPDFLGRPFKVKSTINVEAATSVSLCSFPKAAVERIMKESPGLEHRLLKQTLDELDEALEWMVTLGRKTAPEKVASFLLMIARNMDSSIDPAAGSACFDLPLTRADISDFLGLTNETVSRQLTRLRADGVIRIENKRHVTVDSMSRLEQRCGGRGARQPAFE | not soluble |
| DGRRMVQGLLTASLLTSIGGDLEVLASRMDLQFQRPVYTGETLVCELTVVSADPHTDGGVALVGDVAVRRVNRDDNSGQADTAAP | not soluble |
| MSLRIFKHQGCSAVKIRSTALVKGFRQSAPYVNAHRGKTMVVMLGGEAIADKNFPNIISDIALLHSLGVKVVLVHGARPQINQILEKNQRDTPYHKGVRITDESSLGLVMQAAGQLQHAITARLSMSLNNTPMAGTQLNVVSGNFIISQPLGIDEGVDYCHSGRIRRIDVEGINRMLDLGSIVLLGPIASSVTGECFNLLSEEVATQVAIKLKADKLIGFCPQQGIIDTKGNAIAELFPSDVERLVKSMEQECAPDDEECFSTMRFLRAALKACRAGVPRSHLVSYKEDGALIQELFSFDGIGTQIVMASAEQIRQATIDDIGGIFDLIRPLEEQGILVRRSREQLEQEIHKFTIIDKDGLVIGCSALYPYPEERMAEMACVAIHPEYRDGHRGLHLLVHSKHQAKQMGIRHLFVLTTHSTHWFREQGFNEVDVEALPMAKKSLYNYQRRSKILMLQLEGHHHHHH | not soluble |
| MKLALVNRQVILPESGTESFQCHASTLVRLPCGTLVAAWFAGLREGSEDTAIWLSRYEHNIWTTPQRVAAREGEAHWNPVLFYPSDKLWLFYKVGSDVHVWKTWFITSSDRGFTWSTPAPLVNDDILPRGPVKNKLLLASNGAWIAPGSIESPERWRAFVDRSSDEGKHWSISFVPLEPDNAISGTNVALWDGIKKGRLWECCLENLLRWDGVIQPTLWESSPGHIHMLLRSTRGAIFRSDSIDYGATWSVARATSLPNNNSGIDLVSMQDGTLILALNPVNGNWGKRYPLSLIASQDNGESWLPLLDLESDHGEYSYPAIISEGGIVHITYTWNRKNIVYCRLQTVLEHHHHHH | not soluble |
| MPTPPAASSLAAQMGESPAPLYARVKHMIALQIQNGTWPPHHRVPSESELVTQLGFSRMTINRALRELTVEGLLVRMQGVGTFVAEPKSQSALFEVHNIADEIAARGHRHTCKVMVLKEEAAGSERALALDMREGQRVFHSLIVHFENDIPVQIEDRFVNAQVAPDYLKQDFTLQTPYAYLSQVAPLTEGEHVVEAILAEADECKLLQIDAGEPCLLIRRRTWSGRQPVTAARLIHPGSRHRLEGRFTK | not soluble |
| MAHHHHHHMAILYNRITGLKDSVYGEGLQCRILGLDEIKVFNIRIRPRVLKTMTGTKDLQMVNISLRVLFRPQTDRLPQIYREFGMDYDERILPSISNEILKAVVAEYKAEELIQKRDVVSARIYQLMQSKVSQFGLVLEDLSLVDIQFGKEFMVAVEQKQVAQQEAERFRYVVLENEQKRRAAVVRAEGEAESARLISEAIQRSGGGLLELRRIEAAVDIASKLIPMRNVTFLPGGSNMLLHMKSHQASEQAH | not soluble |
| MEVSSVFIFPPKPKDVLTITLTPKVTCVVVDISKDDPEVQFSWFVDDVEVHTAQTQPREEQFNSTFRSVSELPIMHQDWLNGKEFKCRVNSAAFPAPIEKTISKTKGRPKAPQVYTIPPPKEQMAKDKVSLTCMITDFFPEDITVEWQWNGQPAENYKNTQPIMDTDGSYFVYSKLNVQKSNWEAGNTFTCSVLHEGLHNHHTEKSLSHSPGKE | soluble |
| GPGSGPVFVQEPSHVMFPLDSEEKKVKLSCEVKGNPKPHIRWKLNGTDVDIGMDFRYSVVDGSLLINNPNKTQDAGTYQCIATNSFGTIVSREAKLQFAYLENFKTRTRSTVSVRRGQGMVLLCGPPPHSGELSYAWIFNEYPSYQDNRRFVSQETGNLYIAKVEKSDVGNYTCVVTNTVTNHKVLGPPTPLILRNDGVMGEYEPKIEVQFPETVPAEKGTTVKLECFALGNPVPTILWRRADGKPIARKARRHKSNGILEIPNFQQEDAGSYECVAENSRGKNVAKGQLTFYAQPNWVQIINDIHVAMEESVFWECKANGRPKPTYRWLKNGDPLLTRDRIQIEQGTLNITIVNLSDAGMYQCVAENKHGVIFSSAELSVIAE | soluble |
| MGKWRYLAIGVCLMTTSGVTFADSLDAQRQRYQQVKLAWDSNQMDTVAQLMPTLRDYPLYPYLEYRQLTQDLSQVSTAQVKDFLNRHPTLPPAKSLPSRFVNELARREDWRGLLTFSPTAPKPVAARCNYYYAKWATGEQSVAWEGASEIWLNGQSLPGSCDKLFSVWQQAGHQTPLATLARMKLALKEGNASLVSYLLKQLPADYQTMGTALAKLQSDPSSVESFARTVGPTDFTRSATTIAFTRLARQDVENARLMIPSLVRLQKMSDSEKLELEEAVAWRLMGNDATYEQAKWRDQVALRSHSTSLLERRIRMSLGSGDRQGLATWLARLPAEAQDKDEWRYWRASLLLEQGKKAEGEAILRSLTKERGFYPMVAAQKLNIPYPIKVQVAAKPDVSLAQRPEIARVRELMYWNMDNQARAEWSYLVASRSKAEQEALARYAFDQKWADLSVQATIVAKLWDHLEERFPMAWTKEFRQFTEDKGITPSYAMAIARQESAWNPKAQSPVGATGLMQVMPRTAEHTVKRNNIAGYLNSSQLLDPVTNIEIGTYYLEEVYQQFGRNRILSSAAYNAGPSRVNTWLGNSGGQVDAVAFIESIPFSETRGYVKNVLAYDAFYRHFMNRPAKVLSDAEWQRRY | soluble |
| MSLQYESHSQLIIKSSDGGSSFDPSSLLMAAGVSGASGGTESQLVEAYIQSADMIKYLDETIGLREHYMSDKADMFSGLSSSHKQEDFYKFYLDHIEVSVDSASSVISLRTRAFDAEYAKIINQAIVDKAEEFINNINNDLAKSKLTFAKGEHEIVEQKLQQAKTEILSFQSKYNVLDPSAEGAAFQQIAFSLQATLAQKKAELSTMSTMMSNVAPEVINIKREIAALQKEVEKQKERISTAEGESEALSVSELMAQYSNLQVQLQLAIQAYSSSLITLENARVEAYQKLQHLVTVESPTLPDDNAYPTEGHHHHHH | soluble |
